Laboratory results reported in the Immune Epitope Database (IEDB).

Experiments:
HLA-B*58:01 = experiment: IEDB peptide-MHC binding, purified MHC/direct/fluorescence; filed as Kd, often an IC50 or EC50 that approximates it; ≥ and ≤ were set here for values at or beyond the usual limits of such assays; conditions: source organism: Mycobacterium tuberculosis variant bovis BCG str. Pasteur 1173P2
HLA-A*23:01 = experiment: IEDB peptide-MHC binding, purified MHC/competitive/radioactivity; filed as Kd, often an IC50 or EC50 that approximates it; ≥ and ≤ were set here for values at or beyond the usual limits of such assays
HLA-A*29:02 = experiment: as above
HLA-A*01:01 [1] = experiment: as above
HLA-A*30:02 = experiment: as above
HLA-A*24:02 = experiment: as above
HLA-A*26:01 = experiment: as above
HLA-A*02:01 = experiment: IEDB peptide-MHC binding, purified MHC/direct/fluorescence; filed as Kd, often an IC50 or EC50 that approximates it; ≥ and ≤ were set here for values at or beyond the usual limits of such assays; conditions: source organism: Bacillus licheniformis
HLA-A*31:01 [2] = experiment: as above
HLA-A*03:01 [3] = experiment: as above
HLA-A*11:01 [4] = experiment: as above
HLA-B*15:01 = experiment: as above
HLA-A*01:01 [5] = experiment: as above
HLA-A*69:01 = experiment: as above
HLA-B*27:05 = experiment: as above; conditions: source organism: Homo sapiens
HLA-A*30:01 = experiment: IEDB peptide-MHC binding, purified MHC/competitive/radioactivity; filed as Kd, often an IC50 or EC50 that approximates it; ≥ and ≤ were set here for values at or beyond the usual limits of such assays
HLA-A*68:01 = experiment: as above
HLA-A*33:01 = experiment: as above
HLA-A*31:01 [6] = experiment: as above; conditions: source organism: Vaccinia virus WR
HLA-A*03:01 [7] = experiment: as above; conditions: source organism: Vaccinia virus WR
HLA-A*11:01 [8] = experiment: as above
HLA-B*40:01 = experiment: IEDB peptide-MHC binding, purified MHC/direct/fluorescence; filed as Kd, often an IC50 or EC50 that approximates it; ≥ and ≤ were set here for values at or beyond the usual limits of such assays; conditions: source organism: Mycobacterium tuberculosis
HLA-B*07:02 = experiment: as above; conditions: source organism: Homo sapiens
HLA-B*08:01 = experiment: IEDB peptide-MHC binding, purified MHC/competitive/radioactivity; filed as Kd, often an IC50 or EC50 that approximates it; ≥ and ≤ were set here for values at or beyond the usual limits of such assays; conditions: source organism: Dengue virus 3 Martinique/1243/1999
[9] = source organism: SARS coronavirus Tor2
[10] = source organism: Bacillus licheniformis
[11] = source organism: Mammarenavirus whitewaterense
[12] = source organism: Dengue virus 3 Martinique/1243/1999
[13] = source organism: Lassa virus Josiah
[14] = source organism: Xanthobacter autotrophicus
[15] = source organism: Vaccinia virus WR
[16] = source organism: Mammarenavirus machupoense
[17] = source organism: Cryptosporidium parvum
[18] = source organism: Dengue virus 1 Brazil/97-11/1997

AAAAPYAGW
Kd (HLA-B*58:01): 27.1 nM

ACADGTRHTY
Kd (HLA-A*23:01; [9]): ≥ 70000 nM | Kd (HLA-A*29:02; [9]): 6170 nM | Kd (HLA-A*01:01 [1]; [9]): 2160 nM | Kd (HLA-A*30:02; [9]): 32.8 nM | Kd (HLA-A*24:02; [9]): ≥ 70300 nM | Kd (HLA-A*26:01; [9]): ≥ 86900 nM

ALMEITSRY
Kd (HLA-A*02:01): 4810 nM | Kd (HLA-A*31:01 [2]; [10]): 5280 nM | Kd (HLA-A*03:01 [3]; [10]): 259 nM | Kd (HLA-A*11:01 [4]; [10]): 605 nM | Kd (HLA-B*15:01; [10]): 90.5 nM | Kd (HLA-A*01:01 [5]; [10]): 1040 nM | Kd (HLA-A*69:01; [10]): 11700 nM

ARLFGIRAK
Kd (HLA-A*31:01 [2]; source organism: Homo sapiens): 2940 nM | Kd (HLA-A*03:01 [3]; source organism: Homo sapiens): 1240 nM | Kd (HLA-A*11:01 [4]; source organism: Homo sapiens): 4240 nM | Kd (HLA-B*27:05): 1040 nM

ATDFKFAMY
Kd (HLA-A*03:01 [3]; source organism: Homo sapiens): 7810 nM | Kd (HLA-A*11:01 [4]; source organism: Homo sapiens): 2400 nM | Kd (HLA-B*15:01; source organism: Homo sapiens): 4100 nM | Kd (HLA-A*01:01 [5]; source organism: Homo sapiens): 135 nM

DHHFTPQII
Kd (HLA-A*23:01; [11]): 11200 nM | Kd (HLA-A*29:02; [11]): 2970 nM | Kd (HLA-A*01:01 [1]; [11]): 61.5 nM | Kd (HLA-A*30:02; [11]): ≥ 50800 nM | Kd (HLA-A*24:02; [11]): ≥ 43900 nM | Kd (HLA-A*26:01; [11]): ≥ 77900 nM

DYLVSTQEF
Kd (HLA-A*23:01; [9]): 18800 nM | Kd (HLA-A*29:02; [9]): 259 nM | Kd (HLA-A*01:01 [1]; [9]): ≥ 78100 nM | Kd (HLA-A*30:02; [9]): 3350 nM | Kd (HLA-A*24:02; [9]): ≥ 43900 nM | Kd (HLA-A*26:01; [9]): 14500 nM

ETLLPLTQY
Kd (HLA-A*23:01; [9]): ≥ 77800 nM | Kd (HLA-A*29:02; [9]): 262 nM | Kd (HLA-A*01:01 [1]; [9]): ≥ 33100 nM | Kd (HLA-A*30:02; [9]): 4310 nM | Kd (HLA-A*24:02; [9]): ≥ 77600 nM | Kd (HLA-A*26:01; [9]): 43.5 nM

EVKTCTWPK
Kd (HLA-A*30:01; [12]): 9340 nM | Kd (HLA-A*68:01; [12]): 25.2 nM | Kd (HLA-A*33:01; [12]): 8.54 nM

FIAQSKGLY
Kd (HLA-A*23:01; [9]): ≥ 77800 nM | Kd (HLA-A*29:02; [9]): 4.94 nM | Kd (HLA-A*01:01 [1]; [9]): 465 nM | Kd (HLA-A*30:02; [9]): 24.5 nM | Kd (HLA-A*24:02; [9]): ≥ 77600 nM | Kd (HLA-A*26:01; [9]): 88.4 nM

FYLYLTFYF
Kd (HLA-A*23:01; [9]): ≥ 29300 nM | Kd (HLA-A*29:02; [9]): ≥ 75000 nM | Kd (HLA-A*01:01 [1]; [9]): 3690 nM | Kd (HLA-A*30:02; [9]): ≥ 96800 nM | Kd (HLA-A*24:02; [9]): ≥ 77600 nM | Kd (HLA-A*26:01; [9]): 2050 nM

GIDVTDLFA
Kd (HLA-A*23:01; [13]): ≥ 68400 nM | Kd (HLA-A*29:02; [13]): ≥ 78900 nM | Kd (HLA-A*01:01 [1]; [13]): 261 nM | Kd (HLA-A*30:02; [13]): ≥ 40500 nM | Kd (HLA-A*24:02; [13]): ≥ 77500 nM | Kd (HLA-A*26:01; [13]): ≥ 77900 nM

GVWTRDGNR
Kd (HLA-A*31:01 [2]; [14]): 59 nM | Kd (HLA-A*03:01 [3]; [14]): ≥ 20000 nM

ISAGFSLWIY
Kd (HLA-A*23:01; [9]): ≥ 28800 nM | Kd (HLA-A*29:02; [9]): 2.3 nM | Kd (HLA-A*01:01 [1]; [9]): 52.3 nM | Kd (HLA-A*30:02; [9]): 9.64 nM | Kd (HLA-A*24:02; [9]): ≥ 70300 nM | Kd (HLA-A*26:01; [9]): 1090 nM

KTLDISSFY
Kd (HLA-A*30:01; [15]): 23.3 nM | Kd (HLA-A*31:01 [6]): 88.3 nM | Kd (HLA-A*03:01 [7]): 19 nM | Kd (HLA-A*11:01 [8]; [15]): 6.46 nM | Kd (HLA-A*68:01; [15]): 187 nM | Kd (HLA-A*33:01; [15]): ≥ 41900 nM

LCMLNNSFYY
Kd (HLA-A*23:01; [16]): ≥ 29300 nM | Kd (HLA-A*29:02; [16]): 5.43 nM | Kd (HLA-A*01:01 [1]; [16]): 612 nM | Kd (HLA-A*30:02; [16]): 11.7 nM | Kd (HLA-A*24:02; [16]): ≥ 47800 nM | Kd (HLA-A*26:01; [16]): ≥ 69700 nM

LEEIGILLL
Kd (HLA-B*40:01): 11 nM

LPRWPPPQL
Kd (HLA-B*07:02): 164 nM | Kd (HLA-A*69:01; source organism: Homo sapiens): 5500 nM

MFKKRNLTI
Kd (HLA-A*30:01; [12]): 143 nM | Kd (HLA-A*23:01; [12]): 475 nM | Kd (HLA-B*08:01): 15.7 nM | Kd (HLA-A*24:02; [12]): 158 nM

MIRTWRQNK
Kd (HLA-A*31:01 [2]; [17]): 364 nM | Kd (HLA-A*03:01 [3]; [17]): 226 nM

MSFLEKDAPY
Kd (HLA-A*23:01; [9]): ≥ 70000 nM | Kd (HLA-A*29:02; [9]): 224 nM | Kd (HLA-A*01:01 [1]; [9]): 64.4 nM | Kd (HLA-A*30:02; [9]): 3.07 nM | Kd (HLA-A*24:02; [9]): ≥ 70300 nM | Kd (HLA-A*26:01; [9]): 262 nM

MVLLTMKEK
Kd (HLA-A*30:01; [18]): 2780 nM | Kd (HLA-A*11:01 [8]; [18]): 366 nM

NSGPDDQIGY
Kd (HLA-A*23:01; [9]): ≥ 70000 nM | Kd (HLA-A*29:02; [9]): 7380 nM | Kd (HLA-A*01:01 [1]; [9]): 1010 nM | Kd (HLA-A*30:02; [9]): 6790 nM | Kd (HLA-A*24:02; [9]): ≥ 33700 nM | Kd (HLA-A*26:01; [9]): 8420 nM
